Reference: article PMC9499477, “The Inflammasome Activity of NLRP3 Is Independent of NEK7 in HEK293 Cells Co-Expressing ASC” (International Journal of Molecular Sciences, 2022)

Molecular target: the molecule itself
Experiment: SEC + other: dynamic light scattering; analytical SEC: 100 µL of 1 mg/mL FLAG-tagged NLRP3ΔPYD on Superose 6 Increase 10/300, 20 mM HEPES pH 7.5, 200 mM NaCl, 1 mM MgCl2, 2 mM DTT, size by calibration standards; DLS at 10 °C in the same buffer; self-association

B1: NLRP3ΔPYD carrying the double mutation F788E/F813E (NLRP3ΔPYD-F788E/F813E), FLAG-tagged (domain or fragment, human, UniProt Q96P20 126-1036, looked up)
chain: RISICKMKKDYRKKYRKYVRSRFQCIEDRNARLGESVSLNKRYTRLRLIKEHRSQQEREQELLAIGKTKTCESPVSPIKMELLFDPDDEHSEPVHTVVFQGAAGIGKTILARKMMLDWASGTLYQDRFDYLFYIHCREVSLVTQRSLGDLIMSCCPDPNPPIHKIVRKPSRILFLMDGFDELQGAFDEHIGPLCTDWQKAERGDILLSSLIRKKLLPEASLLITTRPVALEKLQHLLDHPRHVEILGFSEAKRKEYFFKYFSDEAQARAAFSLIQENEVLFTMCFIPLVCWIVCTGLKQQMESGKSLAQTSKTTTAVYVFFLSSLLQPRGGSQEHGLCAHLWGLCSLAADGIWNQKILFEESDLRNHGLQKADVSAFLRMNLFQKEVDCEKFYSFIHMTFQEFFAAMYYLLEEEKEGRTNVPGSRLKLPSRDVTVLLENYGKFEKGYLIFVVRFLFGLVNQERTSYLEKKLSCKISQQIRLELLKWIEVKAKAKKLQIQPSQLELFYCLYEMQEEDFVQRAMDYFPKIEINLSTRMDHMVSSFCIENCHRVESLSLGFLHNMPKEEEEEEKEGRHLDMVQCVLPSSSHAACSHGLVNSHLTSSFCRGLFSVLSTSQSLTELDLSDNSLGDPGMRVLCETLQHPGCNIRRLWLGRCGLSHECCEDISLVLSSNQKLVELDLSDNALGDEGIRLLCVGLKHLLCNLKKLWLVSCCLTSACCQDLASVLSTSHSLTRLYVGENALGDSGVAILCEKAKNPQCNLQKLGLVNSGLTSVCCSALSSVLSTNQNLTHLYLRGNTLGDKGIKLLCEGLLHPDCKLQVLELDNCNLTSHCCWDLSTLLTSSQSLRKLSLGNNDLGDLGVMMFCEVLKQQSCLLQNLGLSEMYFNYETKSALETLQEEKPELTVVFEPSW
notes: NLRP3, human, N-terminally truncated, amino acids 126-1036 (lacks the pyrin domain), with F788E and F813E; Made by megaprimer mutagenesis of the NLRP3ΔPYD construct; also called the mutant
- stoichiometry N: ~3
